Biological target: T1, Cdc24-6xHis (full-length, wild type) (S. cerevisiae (budding yeast), UniProt P11433 1-854)
T1 sequence: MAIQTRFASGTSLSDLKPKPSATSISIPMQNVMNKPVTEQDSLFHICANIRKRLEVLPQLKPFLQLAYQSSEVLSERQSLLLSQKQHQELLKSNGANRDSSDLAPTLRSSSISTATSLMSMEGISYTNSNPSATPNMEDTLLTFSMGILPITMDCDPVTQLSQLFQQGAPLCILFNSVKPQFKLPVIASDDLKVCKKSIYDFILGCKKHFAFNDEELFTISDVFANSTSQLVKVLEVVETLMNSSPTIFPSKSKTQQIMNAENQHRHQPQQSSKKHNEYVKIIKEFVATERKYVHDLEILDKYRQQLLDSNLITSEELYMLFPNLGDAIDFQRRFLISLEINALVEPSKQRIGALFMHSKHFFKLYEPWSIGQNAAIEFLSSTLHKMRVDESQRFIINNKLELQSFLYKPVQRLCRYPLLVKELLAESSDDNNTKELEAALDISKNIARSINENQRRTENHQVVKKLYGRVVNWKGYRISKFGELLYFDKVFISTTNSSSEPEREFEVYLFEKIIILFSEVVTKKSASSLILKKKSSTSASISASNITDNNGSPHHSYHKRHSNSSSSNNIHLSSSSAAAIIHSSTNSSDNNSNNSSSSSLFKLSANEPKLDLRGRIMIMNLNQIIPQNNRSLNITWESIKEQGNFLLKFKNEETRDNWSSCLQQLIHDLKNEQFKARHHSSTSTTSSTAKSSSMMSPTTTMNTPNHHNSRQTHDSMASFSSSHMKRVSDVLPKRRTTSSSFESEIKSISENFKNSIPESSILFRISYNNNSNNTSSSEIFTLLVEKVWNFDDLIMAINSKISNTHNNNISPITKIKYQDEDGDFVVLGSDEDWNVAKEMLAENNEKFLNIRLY
Experiment: liposome floatation

binding result: binds
B1: Bem1 (full-length, wild type) (natural protein)
chain: MLKNFKLSKRDSNGSKGRITSADISTPSHDNGSVIKHIKTVPVRYLSSSSTPVKSQRDSSPKNRHNSKDITSPEKVIKAKYSYQAQTSKELSFMEGEFFYVSGDEKDWYKASNPSTGKEGVVPKTYFEVFDRTKPSSVNGSNSSSRKVTNDSLNMGSLYAIVLYDFKAEKADELTTYVGENLFICAHHNCEWFIAKPIGRLGGPGLVPVGFVSIIDIATGYATGNDVIEDIKSVNLPTVQEWKSNIARYKASNISLGSVEQQQQQSITKPQNKSAKLVDGELLVKASVESFGLEDEKYWFLVCCELSNGKTRQLKRYYQDFYDLQVQLLDAFPAEAGKLRDAGGQWSKRIMPYIPGPVPYVTNSITKKRKEDLNIYVADLVNLPDYISRSEMVHSLFVVLNNGFDREFERDENQNNIKTLQENDTATFATASQTSNFASTNQDNTLTGEDLKLNKKLSDLSLSGSKQAPAQSTSGLKTTKIKFYYKDDIFALMLKGDTTYKELRSKIAPRIDTDNFKLQTKLFDGSGEEIKTDSQVSNIIQAKLKISVHDI
